{
  "source": "patent US20250340661A1",
  "about": "“ANTI CD40 ANTIBODY, ANTIGEN BINDING FRAGMENT AND MEDICAL USE THEREOF” (Jiangsu Hengrui Pharmaceuticals Co., Ltd., priority 2021, published 2025)",
  "key": {"[1]": {"molecular_target": "T1, Raji cell surface human CD40 (Homo sapiens, UniProt P25942)", "T1 construct": "Raji cells highly express human CD40 on the cell surface; endogenous in cells; host or cells: Raji cells (Burkitt lymphoma line)", "T1 sequence (P25942 21-277)": "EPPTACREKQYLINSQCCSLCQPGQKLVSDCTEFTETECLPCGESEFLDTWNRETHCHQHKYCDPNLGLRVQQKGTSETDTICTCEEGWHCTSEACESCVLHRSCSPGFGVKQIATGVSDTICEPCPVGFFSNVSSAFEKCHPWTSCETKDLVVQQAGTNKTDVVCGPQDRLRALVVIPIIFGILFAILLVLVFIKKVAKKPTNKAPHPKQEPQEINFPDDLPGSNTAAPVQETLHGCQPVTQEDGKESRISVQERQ", "assay": "FACS binding of humanized anti-CD40 antibodies to Raji cells", "description": "Raji cells highly express human CD40 on the cell surface and thus can be used to detect the binding of CD40 antagonistic antibodies to the cell surface human CD40.\nRaji cells were plated at 1.5E5/well, and various concentrations of CD40 antagonistic antibodies were added. The plate was incubated at 4° C. for 1 h. After two washes with FACS buffer (PBS+2% FBS), a secondary antibody (Alexa Flour488 conjugated anti-human IgG (H+L) antibody) was added, and the plate was incubated at 4° C. for 0.5 h.\nAfter two washes with FACS buffer, the fluorescence intensity on the cell surface was measured by flow cytometry (BD FACS Celesta)."}, "[2]": {"molecular_target": "T2, CD40 (Homo sapiens, UniProt P25942)", "T2 sequence (P25942 21-277)": "as above", "assay": "HEK-Blue CD40L reporter gene cell activity of human-rabbit chimeric anti-CD40 antibodies", "format": "cell-based", "parameters": "host or cells: HEK-Blue CD40L cells", "conditions": "HEK-Blue CD40L cells, 25 ng/mL CD40L + anti-His antibody", "description": "HEK-Blue CD40L cells were purchased from Invivogen (Cat. #hkb-cd40). The cells were stably transfected with the human CD40 gene and the NF-kB-mediated SEAP genome. The activation level of the CD40 signaling pathway can be characterized by detecting the secreted SEAP in the supernatant using QUANTI-Blue, the substrate of SEAP. In this experiment, the in vitro antagonist activity of anti-CD40 antibodies was assessed according to IC50 by detecting the activation of HEK-Blue CD40L cells by CD40L. HEK-Blue CD40L cells were cultured in a DMEM medium containing 10% FBS, 100 μg/mL Zeocin and 30 μg/mL Blasticidin and passaged 2-3 times in a week at a ratio of 1:5 or 1:10. During passaging, the medium was pipetted off, and the cell layer was rinsed with 5 mL of 0.25% pancreatin. Then the pancreatin was pipetted off, the cells were digested in an incubator for 3-5 min, and then a fresh medium was added to resuspend cells. 100 μL of cell suspension was added to a 96-well cell culture plate at a density of […]. The medium was DMEM containing 10% FBS, 100 μg/mL Zeocin and 30 μg/mL Blasticidin. Only 100 μL of sterile water was added to the periphery of the 96-well plate. […] The absorbance at 630 nm was measured with a microplate reader (Thermo MultiSkanFc), and IC50 values were calculated and used to assess the in vitro cell activity of the anti-CD40 antibodies."}, "[3]": {"molecular_target": "T2, CD40", "assay": "DC cell activation assay system (monocyte-derived DCs, CD40L stimulation)", "format": "cell-based", "parameters": "endogenous in cells; host or cells: human PBMCs (CD19+ B cells read out)", "text": "CD40 is highly expressed on dendritic cells (DCs), and CD40L, upon binding to CD40, can induce DC activation, up-regulate the expression of multiple activation markers on the DC Cell surface, and promote the secretion of multiple inflammatory factors from DCs, further amplifying immune responses. CD40 antagonistic antibodies block the binding of CD40L to CD40, thereby eliminating the immune activation process of DC cells.\nMonocytes were sorted and enriched from fresh primary human peripheral blood PBMCs using the EsaySep™ human CD14 sorting kit (Stemcell, 19359), and differentiated for 6 days with RPMI-1640 medium (10% FBS, 1% penicillin-streptomycin), 50 ng/mL IL-4 (PeproTech, 200-04) and 50 ng/mL GM-CSF (PeproTech, 300-03). On day 7, the differentiated DC cells were plated at 1E5/well into a 96-well cell culture plate. Serially diluted test antibodies were added to the wells, and the cells were co-incubated at 37° C. in 5% CO2 for 0.5 h. CD40L-his and an anti-His antibody were then added to each well at final concentrations. After 48 h of culture, the level of DC cell activation was measured by flow cytometry: after centrifugation, the supernatant was removed, and the cells were washed twice with FACS buffer (PBS+2% FBS) and stained at room temperature for 15 min with 100 μL of Fixable viability dye EF780 (Invitrogen, 65086514) diluted at 1:1000. The cells were washed twice and then blocked at room temperature for 10 min with 100 μL of human Fc blocker (BD, 564220) diluted at 1:200. After centrifugation, the cells were incubated at 4° C. for 0.5 h with flow cytometry antibodies (Alexa Fluor®700 anti-human CD11c (Biolegend, 337220), Brilliant Violet 421™ anti-human CD80 (Biolegend, 305221), and APC anti-human CD86 (Biolegend, 305412)) diluted at 1:200. After centrifugation, the supernatant was removed, the cells were washed twice with FACS buffer and then resuspended in 200 μL of PBS, and the fluorescence intensity on the cell surface was measured by flow cytometry (BD FACS Celesta).\nIn addition, the level of cytokine secretion in the supernatant was measured after 24 h (TNFα, Cisbio, 62[…]) and 48 h (IL-12/23 p40, Novus, VAL121) of culture. According to the results shown in Table 14 and FIGS. 3A to 3D, 9E6-L4H2 and 2F12-L4H2 have similar DC cell inhibition activity to the control antibody CFZ533.\nWith reference to the method in Example 11, the inhibitory activity of the anti-CD40 antibodies 2F12-L4H2-AAYTE and 9E6-L4H2-AAYTE, which carry the AAYTE mutation in the Fc, in the DC cell activation assay system was measured."}, "[4]": {"molecular_target": "T2, CD40", "assay": "FACS binding of human-rabbit chimeric anti-CD40 antibodies to Raji cells", "description": "Raji cells are of a tumor cell line that overexpresses human CD40. 2E5 Raji cells were inoculated onto a 96-well plate. 100 μL of a test antibody was added, with the highest final concentration of 100 nM. The antibody was 5-fold diluted to 8 concentrations. The plate was incubated at 4° C. for 1 h. The plate was washed once with wash buffer, and an AF647-conjugated anti-human IgG antibody (Jackson Immunoresearch Laborotories, Cat. #205-609-088) was added at a dilution ratio of 1:500. The plate was incubated at 4° C. for 30 min. The plate was washed once with wash buffer, and fluorescence intensity was measured using a flow cytometer. The binding EC50 values of the anti-CD40 antibodies for CD40 were calculated. The anti-CD40 antagonistic antibody CFZ533 (i.e., iscalimab, Nova) was used as a positive control, and the heavy and light chain variable region sequences were derived from sequence 5 and sequence 2 of U.S. Pat. No. 8,277,810B, respectively."}},
  "data": [
    {"substance": "CFZ533: anti-CD40 antagonistic antibody (iscalimab), positive control; variable regions from U.S. Pat. No. 8,277,810B [reference compound]", "values": [
      {"measurement": "EC50", "setting": "[1]", "value": 1.01, "unit": "nM"},
      {"measurement": "IC50", "setting": "[2]", "value": 0.272, "unit": "nM"},
      {"measurement": "IC50", "setting": "[3]; 48 h culture, read-out: IC50 in DC cell activation assay system, CD80 MFI", "value": 1.19, "unit": "nM"},
      {"measurement": "IC50", "setting": "[3]; 48 h culture, read-out: IC50 in DC cell activation assay system, CD86 MFI", "value": 1.93, "unit": "nM"},
      {"measurement": "IC50", "setting": "[3]; supernatant, 24 h, read-out: IC50 in DC cell activation assay system, TNFα", "value": 0.35, "unit": "nM"},
      {"measurement": "IC50", "setting": "[3]; supernatant, 48 h, read-out: IC50 in DC cell activation assay system, IL-12/23 p40", "value": 0.68, "unit": "nM"},
      {"measurement": "EC50", "setting": "[4]", "value": 2.41, "unit": "nM"}
    ]}
  ]
}
